{
  "source": "patent CN113912709A",
  "about": "(SHENZHEN NATIONAL CLINICAL RES CENTER FOR INFECTIOUS …, dated 2022)",
  "data": [
    {"target": "T1, SARS-CoV-2 wild-type RBD protein (SARS-CoV-2, UniProt P0DTC2 319-541)", "T1 construct": "domain: RBD", "experiment": "SPR, Biacore 8K, RBD on CM5 chip, IgG injected, 1:1 model", "units": {"Kd": "pM"}, "values": [
      {"binder": "VacW-138 (antibody, V domains shown) VH: not shown VL: AIQLTQSPFSLSASVGDRVTITCRASQGISSALAWYQQKPGKAPKLLIYDASSLESGVPSRFSGSGSGTDFTLTISSLQPEDFATYFCQQVDTYQFTFGPGTKVDIK", "Kd": 1100},
      {"binder": "VacW-209 (antibody, V domains shown) VH: QVQLVESGGGVVQPGRSLRLSCAASGFTFSSIAMHWVRQAPGKGLEWVAVMSFDGSIKYYGDSVKGRFTISRDNSKSTLYLQMNSLRAEDTAVYYCARGVQGYYDRSGYYNLDYNYGMDVWGQGTTVTVSS VL: QSVLTQPPSVSGAPGQRVTISCTGSSSNIGAGYDVHWYQQLPGTAPKLLIYGNSNRPSGVPDRFSGSKSGTSASLAITGLQAEDEADYYCQSYDSSLSGWVFGGGTKLTVL", "Kd": 11.3},
      {"binder": "VacW-201 (antibody, V domains shown) VH: EVQLVESGGGLVQPGGSLRLSCAASGFTFSSYWMNWVRQAPGKGLEWVANIKQDGSEKYYVDSVKGRFTISRDNAKNSLYLQMNSLRAEDTAVYYCARMEYPYGGVDYWGQGTLVTVSS VL: NFMLTQPHSVSESPGKTVTISCTGSSGSIASNYVQWYQQRPGSAPTTVIYEDNQRPSGVPDRFSGSIDSSSNSASLTISGLKTEDEADYYCQSYDSSNRNWVFGGGTKLTVL", "Kd": 880},
      {"binder": "VacW-215 (antibody, V domains shown) VH: EVQLVESGGGLIQPGGSLRLSCAASGFTVSSNYMSWVRQAPGKGLEWVSVIYSGGSTYYADSVKGRFTISRDNSKNTLYLQMNSLRAEDTAVYYCARSTWLRGGFDYWGQGTLVTVSS VL: NFMLTQPHSVSESPGKTVTISCTGSSGSIASNYVQWYQQRPGSAPTTVIYEDNQRPSGVPDRFSGSIDSSSNSASLTISGLKTEDEADYYCQSYDSSNHFYVFGTGTKVTVL", "Kd": 405},
      {"binder": "VacW-212 (antibody, V domains shown) VH: EVQLVESGGGLVQPGGSLRLSCAASGFTFSSYWMNWVRQAPGKGLEWVANIKQDESEKYYVDSVKGRFTISRDNAKNSLFLQMNSLRVEDTAVYYCARMEYPYGGIDYWGQGTLVTVSA VL: NFMLTQPHSVSESPGKTVTISCTGSSGSIASNYVQWYQQRPGSAPTTVIYEDNQRPSGVPDRFSGSIDSSSNSASLTISGLKTEDEADYYCQSYDSSNRNWVFGGGTKLTVL", "Kd": 653},
      {"binder": "VacW-105 (antibody, V domains shown) VH: QVQLVQSGAEVKKPGSSVKVSCKASGGTFRSYTISWVRQAPGQGLEWMGRILPILGIANYAQKFQGRVTITADKSTSTAYMELSSLRSEDTAVYYCARVTGAPVESAAWFDPWGQGTLVTVSS VL: not shown", "Kd": 1640}
    ]},
    {"target": "SARS-CoV-2 wild-type spike protein (on pseudovirus) (SARS-CoV-2, UniProt P0DTC2 14-1273)", "experiment": "cell-based or functional assay", "units": {"假病毒中和试验 IC50": "µg/mL"}, "values": [
      {"binder": "VacW-209 (antibody, V domains shown) VH: QVQLVESGGGVVQPGRSLRLSCAASGFTFSSIAMHWVRQAPGKGLEWVAVMSFDGSIKYYGDSVKGRFTISRDNSKSTLYLQMNSLRAEDTAVYYCARGVQGYYDRSGYYNLDYNYGMDVWGQGTTVTVSS VL: QSVLTQPPSVSGAPGQRVTISCTGSSSNIGAGYDVHWYQQLPGTAPKLLIYGNSNRPSGVPDRFSGSKSGTSASLAITGLQAEDEADYYCQSYDSSLSGWVFGGGTKLTVL", "假病毒中和试验 IC50": 0.03}
    ]}
  ]
}
